Source: PMC12174363, “Multiple glutathione-S-transferases detoxify diverse glucosinolate-based defenses of Brassicales plants in a generalist lepidopteran herbivore (Spodoptera littoralis)” (Communications Biology, 2025)

Legend:
[1] = substrate: S=C=NCc1ccccc1; assay: purified protein; assay type: biochemical, Spodoptera littoralis; details: 4 mM GSH (saturating), 100 mM potassium phosphate pH 6.5, 25 °C, 2.4% acetonitrile
[2] = substrate: C=CCN=C=S; assay: purified protein; assay type: biochemical, Spodoptera littoralis; details: 4 mM GSH (saturating), 100 mM potassium phosphate pH 6.5, 25 °C, 2.4% acetonitrile

| Protein | Km [1] | Vmax [1] | kcat [1] | kcat/Km [1] | Km [2] | Vmax [2] | kcat [2] | kcat/Km [2] |
| --- | --- | --- | --- | --- | --- | --- | --- | --- |
| GSTS6 (GSTs6) (Spodoptera littoralis) (protein, cytosolic sigma class) MPKKLSYFNLNGLAEPIRYILHYTNQEFEDVRYDVYSWPDPKIKASLPYGQFPVYEEDGRVLTQSLAITKYVARGTDLVPTDPWDNAFIESVIFSIMDYWKNVVPTVREPDPAKYTELRNEIIEKNIPYYFSRFNKHLEDNGGFLNGKLSWGDFVFCGVIEASDMFLGIELSKDYPAVGSLVQHIRNLPGVKEYVKSIGPYTIDLARFKYKK | 98.24 ± 21.15 µM | 52.7 µmol/min/mg | 21.6 ± 1.46 s⁻¹ | 220000 ± 14900 M⁻¹ s⁻¹ | 567.11 ± 131.85 µM | 39.3 µmol/min/mg | 16.1 ± 2.28 s⁻¹ | 28400 ± 4020 M⁻¹ s⁻¹ |
| GSTE14 (GSTe14) (Spodoptera littoralis) (protein, cytosolic epsilon class) MGVKLYVMDFSPPSRACMLTCEIFGIPFEKIPVDLFKGEHLAPNYLQKNPLHTIPVLEDGDLILYDSHAIMAYLADTYGKDESWYPKDVKKRALVNQKLFFNTAVIYRRLRNITYYVFQRGRKTLEQDWLDDIAEGYGFLEAFLSKTKYIAGDHITIADIAILSHLTNLEYILPIDAKKYPKTSAWLEDFKATPYAKKHNEEGAKALNDLLKKFLTS | 185.37 ± 89.77 µM | 47.3 µmol/min/mg | 19.8 ± 3.35 s⁻¹ | 107000 ± 37300 M⁻¹ s⁻¹ | 124.10 ± 15.66 µM | 89.4 µmol/min/mg | 37.4 ± 1.85 s⁻¹ | 302000 ± 14900 M⁻¹ s⁻¹ |
